The domain aggregation screens of Martell et al. (2025)

Assay: soluble fraction after stress (log2 fold change); higher = more stays soluble; pooled small domains, quantitative proteomics
Settings: stress: 50 degC
In short: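 Pooled custom libraries of small protein domains were each held under stress at 50°C. The read-out, high-throughput quantitative proteomics, tracked how much of each protein stayed soluble. This is reported as a base-two log fold change used to indicate aggregation propensity. Higher values mean more protein remains in solution.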

Sequence | soluble fraction (log2)
HMKKIFIDAPLDTMITIPKDTTHHLLTVFRHKMEKPVLVGGSDGRTGVYQIQDVVDGEASAKLVGDIQ | 0.514
HMKKISAKQQQILDYISSYSLEHGYPPSVREIGAEMGLRSPSTVHAHLKKLQEAGYLEPNEHKSRALTP | 0.128
HMKKITTANPLDINRATLAQLDTLPGIGPVTAERIIAYRSKVGRINSLDELKKISGLGGMKFEEIKPLLRV | 0.042
HMKKKLPRYLQEQKYGNGMVFYRYNPTARYIDEGIVTRTNLGSDLSIAKKKANEFNKLIDAFLQQQSE | -0.92
HMKKMSFKEAFLKYVEIKDNPYNMESVKMLVSLQPLIVKAYSILGVDKVRRLNYVKTKIQDAIINGD | -1.9
HMKKNLELGLLPHEVKSILGEPDFIDTITDIDGIRYDMWSYTKLNVTKRLYFEDLFLVRMEE | -1.43
HMKKNNTTPIPKTLNYVNIKGLSNEAVERLNKHKPSTLGQASRLEGITPAATSLISIAIKKNQLLEKAES | 0.251
HMKKPAERRKELVDAAAHLFAEKGYENTSVRDILDAVGGAPGMFYYYFKSKQDIYVAVMEDF | -3.54
HMKKPANLISEDRMVEVLYDVIIINTAKGVNKQLLQNNINNPLNYIYRSHGIDSLQFAESNAYYTS | -0.371
HMKKSGFFSAGDRIQLTDNKGRQYSFNITEGKEFHTHQGFIKHDDLIGMPEGSVVSINSTTGVVQKFMAF | -0.164
HMKKSIRIFELMKAKVAAEIFDQMILEGKIEDVFDIIVRLKDSNVSNIMKTMSVENSSRLVQKLERYNKD | -2.18
HMKKVRIPDDPEEAYRKALKTAMNIVGYKDNTEFTLREKLSERGYSGETVDAVAEFMKSKGYV | 0.245
HMKKVTMQDIANILNISRVTVWKVLNNQPGVSKQLRDQILLTAKETGYLKPGQEAEAYLEENNIYFEG | 0.176
HMKKYDIKEAQEIAEINRIPGLVTTSHGRRVYFDPKIMQYVSEEQIVKKYGQKTVKMLDQWYVSNILNK | -0.0388
HMKKYLIIDAANEKIIFKIIDNNKTYTNDYENSRKNFDRFAVLLFNFLNKNMISFDTIDKAL | -0.0864
HMKLARGEFEIMAKFIKEISGISLEQNKTYLIESRLSDLAESEGVKTFSDFFFKAKFNKILKEKIIDAI | -0.946
HMKLHFTINGVHYTWYKQFIRGIQIRELGNIPREDELYLDLPDGWKDDFIEDDEIVDLARPGVEHFISRAK | -1.78
HMKLIIVPNLVGQSRRSVEISLQQIGLRIDTVYTEFNPDYPKGTVAWQFPKSGDHIKKGMGLQITVSQG | -0.522
HMKLINEDLNNEIVFEENKVNLLVIENKKKFVQFIQEIIKQINGDEGKFSLFDINTELKIHDKIDII | 0.185
HMKLIPLTDMRGQLRSGAPLPWGVRDAQGNLLLGKGHVIASDDMLEALLARGMFVDAEEAKAARG | 0.00271
HMKLISVAVMRASDAAEIAGGTDSKTLMYRAGLGLFQSWDWHGKIDIVTGSGNNAGDGYVLALLL | -0.0519
HMKLNKRQYAYQVIRSRILDGTYVPGQRIIIDQIAKEVNSSHIPVREAIHQLESEQLIDYEPNIGAIVKG | 0.285
HMKLSALRDKIKEHLLRQIQNGELQVGKTINLAALSRVTGISVTPIREALTQLEQAQVIQAVPNRGFVVA | 0.00526
HMKLSIGGTIEKLRRNKGLSHQQLANALGVTPDTVEKWEINAAYPDITLLSPIARLLGTTLDALLMF | -0.649
HMKLSKLTKPELDEIFRNANFTEEEEKVFWLLARGKSLEQISAKTFLPIATVNRRVKSIKDKIG | 0.0605
HMKLTKPKLIQLIHIAKSKLNMDELSYRVLLDNLTGKTSTTKMTVGELLKVYESMKDKGFKPQV | -0.166
HMKLTTRQTEIINIVKAEQPISGEKIAQNLGLSRATLRNDLSILTMTGLLDAKPKVGYFYTGQ | -0.447
HMKLVESALSILEEAVDRDFHGNLGDAARYFDIPYQTIYSWLKSRKRVPSLRALEPVLEKLGVSFTT | -0.896

Sequence | soluble fraction (log2)
HMKLVTIPNVIGKTKEDAMKTLKDLGVTVTVETKESEKDDGTVIAQSKAEGTKLTAGENVTITVSKKKK | 0.139
HMKMATITKRTNPSGAVVYRAQVRVKREGYPPYSESRTFSKKSLATEWAKRREFEIETNPDLLFN | -1.26
HMKMLEINDNDSVGLKNLKTQYNHNQKVIENFQLEINKVINDGELPDKYLLDGMEKYQKLNMQIMSTIEKQ | 0.00483
HMKMPNGYGSVYKLSGNRRKPWAARVTDGWVNDTKTKKSKQKYKFIGFYETRKEALLALADYNANP | -1.43
HMKMSLKENLLELLQKSSGEFLSGERAAETLGVSRTAVWKAVTSLKNEGYNIESVTNRGYRFS | -0.0145
HMKNANGYGSITKLKGNRRKPYMVRITVGRDENGFPIRKVLGYYSSKANAVAALSDYNREPYDI | -0.667
HMKNENSLLVSRLAEEKIINRAKLVLMEYLKLSEPQAHRYIEKQAMDLQISRAEVAARVLETYE | -0.0477
HMKNEVENLSYMINRIIEYRDLNNLSNKNLANKIGISEALLSYILNGRRKLSKEIQRKIALFLLND | -1.49
HMKNFAPVWGEEGAEFGKEVDTGFRLRIVEKEKDVNDLFEVIQKHTIQSQWKPGSTGTESIYKRI | 0.37
HMKNHIEERRKARGMTQQQLASELGVSRQTIISLENGKYNPSILLAHSIARLFGERIEDIFILR | -1.6
HMKNINTNIGKNLKRIRKLRGLTIDALATSSGVSKSMISEIERGIRNPSITIIWSLANALKTPLNYFLKE | -0.115
HMKNKFYEEFSDYIFKHTGIHYAEANYYQLDARINKLMKFLETSDENDVLKAIQGGAVKDQRVHQMIVDLA | -1.7
HMKNKRERLGIISEILRMQVIGSQEELLDILRAKGYDVTQATLSRDLKVLKVAKTPLSNGAYKYVLPPQ | 0.0519
HMKNLSQAEFMYLFKILAFGSTDPDNHPEMAATGMEIAKMLQGLLLSGNVLADILRKNQNVQFWL | -0.204
HMKNNITFSEFLHEVDNGRVIKVNIQGNNITGILADGKSFNTYTPNDPSLIEKLTSKGVSISATPI | 0.0489
HMKNNLKGSPIIIAGGYGVGSKENFNLLFDLAKVLNAEVGASRAAVDAGFVEHDRQIGQTGVTVRP | 0.0735
HMKNNYQYIVDQIKQLILDGELIVGDRLPSERDLSEMYQVSRASVREALKALETIGLLESRHGGGNYIVNH | -0.671
HMKNQIGFKIKNARRKASISQADLSAKLGISSSYLNLIESGKRNVNVDLLLKVSDVLNIELKDLSK | -0.781
HMKNTYTVVSGDTLWGIASRKLGGGSNWTKIYDANAATIESVANRRRGGRGSDHGHWIYPGTVLTI | -0.0158
HMKNYYRILGLNIDAEYEEIKAAYRILAQRHHPDKGGAAAEFRLIQEAYDILSNPLTKRNYDADLLATLN | -0.521
HMKPDMAVIVGSRTLTFATTTDRQILVLRTDGTMVNRLSMKAGETRTITLPAGVYIVNGKKIIV | -0.808
HMKPFSLESYKAFVVKRLGLFPETSSAQMHDWLKEEYPDFPLITPRTVYNFVMKIRQDYGIAKV | -3.66
HMKPFVVVPIDQVRVGMFIQLDLGWMQHPFPVGSFRVASEAQIDTLRSLDLESVRYLPAKSDPAFQQP | -2.1
HMKPGNFILDLLRTYGQKGTSAQNLMSSSRMFNFSENLIRVTLSRLAARGLIENFERGHYRLAE | -0.333
HMKPGTIVTGVVVDIKSDVVVVNAGLKSEGIVPIEQFRNDRGELEVAIGDEVKVALDSLENGFGETVLSRE | 0.0252
HMKPQKRYLFEEVLTFLKHNSEKSFNYKQLGAAMEISNESDRFTLLETLEELKHQGFVVEKEIGKYQAKE | -0.527
HMKPRVTVVTLGVDDLERAVRFYAEGLGFPTEGIVGREFEFGAVAFFDMQPGLRLALWPRRSLAHDSGLP | -0.306
